According to article PMC11741385 (bioRxiv, 2025):

Target: the molecule itself
Experiment: cryo-EM structure

B1: Candida albicans Pra1 (recombinant, full-length excluding the signal peptide) (natural protein, UniProt P87020 16-299, looked up)
chain: APVTVTRFVDASPTGYDWRADWVKGFPIDSSCNATQYNQLSTGLQEAQLLAEHARDHTLRFGSKSPFFRKYFGNETASAEVVGHFDNVVGADKSSILFLCDDLDDKCKNDGWAGYWRGSNHSDQTIICDLSFVTRRYLTQLCSSGYTVSKSKTNIFWAGDLLHRFWHLKSIGQLVIEHYADTYEEVLELAQENSTYAVRNSNSLIYYALDVYAYDVTIPGEGCNGDGTSYKKSDFSSFEDSDSGSDSGASSTASSSHQHTDSNPSATTDANSHCHTHADGEVHC
modifications: N-linked glycosylation at Asn48, Asn89, Asn135 and Asn208; three intramolecular disulphide bonds
- stoichiometry N: 6
